For assay [1], the target named is human TLR4 (ECD-His Tag, residues 1 to 631) (human, UniProt O00206 24-631). Description: SPR. Background: In SPR one partner is held on a chip, and binding of the other changes the refractive index at the surface.
In assay [2] the target is extracellular domain of human RAGE (residues 1 to 344) (human, UniProt Q15109 23-344). Description: SPR.

In paper PMC9897667 (2023) one finds Kd data, which are given here for one molecule.

Chain of extracellular domain of human RAGE (residues 1 to 344) (Q15109 23-344): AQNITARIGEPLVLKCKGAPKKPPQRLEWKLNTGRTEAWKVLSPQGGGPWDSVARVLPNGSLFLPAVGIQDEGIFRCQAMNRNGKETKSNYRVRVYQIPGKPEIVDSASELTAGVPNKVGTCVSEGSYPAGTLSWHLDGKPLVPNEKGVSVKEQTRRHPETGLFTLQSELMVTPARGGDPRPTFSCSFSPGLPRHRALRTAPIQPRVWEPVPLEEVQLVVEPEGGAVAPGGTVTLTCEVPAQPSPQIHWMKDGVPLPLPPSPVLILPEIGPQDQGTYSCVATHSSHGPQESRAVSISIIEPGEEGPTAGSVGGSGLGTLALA
Chain of human TLR4 (ECD-His Tag, residues 1 to 631) (O00206 24-631): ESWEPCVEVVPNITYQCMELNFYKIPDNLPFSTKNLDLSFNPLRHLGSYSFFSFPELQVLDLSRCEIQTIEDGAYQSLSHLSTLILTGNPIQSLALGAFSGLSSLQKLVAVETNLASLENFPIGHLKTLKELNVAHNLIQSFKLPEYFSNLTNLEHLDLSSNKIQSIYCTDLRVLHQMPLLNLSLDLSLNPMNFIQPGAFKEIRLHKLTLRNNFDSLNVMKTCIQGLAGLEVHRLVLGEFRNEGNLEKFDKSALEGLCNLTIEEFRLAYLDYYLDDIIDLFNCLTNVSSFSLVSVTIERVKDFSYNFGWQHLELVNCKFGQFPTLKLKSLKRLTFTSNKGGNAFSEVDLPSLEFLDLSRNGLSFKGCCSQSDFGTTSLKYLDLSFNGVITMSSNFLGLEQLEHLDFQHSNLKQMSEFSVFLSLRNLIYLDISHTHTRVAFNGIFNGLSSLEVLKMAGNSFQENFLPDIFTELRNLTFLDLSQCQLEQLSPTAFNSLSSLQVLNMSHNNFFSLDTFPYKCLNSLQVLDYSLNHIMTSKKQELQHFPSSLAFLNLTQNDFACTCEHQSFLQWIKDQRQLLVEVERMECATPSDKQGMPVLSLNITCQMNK

B1: recombinant human procathepsin L (pCTS-L) (natural protein)
chain: TLTFDHSLEAQWTKWKAMHNRLYGMNEEGWRRAVWEKNMKMIELHNQEYREGKHSFTMAMNAFGDMTSEEFRQVMNGFQNRKPRKGKVFQEPLFYEAPRSVDWREKGYVTPVKNQGQCGSCWAFSATGALEGQMFRKTGRLISLSEQNLVDCSGPQGNEGCNGGLMDYAFQYVQDNGGLDSEESYPYEATEESCKYNPKYSVANDTGFVDIPKQEKALMKAVATVGPISVAIDAGHESFLFYKEGIYFEPDCSSEDMDHGVLVVGYGFESTESDNNKYWLVKNSWGEEWGMGGYVKMAKDRRNHCGIASAASYPTV
Take B1: the Kd is 0.018 µM in assay [1] and 0.0027 µM in assay [2].

In general, Kd refers to a measure of binding affinity in units of concentration. Read a low Kd as tighter binding.
